In the domain aggregation screens of Martell et al. (2025):

Test: soluble fraction after stress (log2 fold change); higher = more stays soluble; pooled small domains, quantitative proteomics
Conditions: stress: pH 4
Procedure, shortened: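 Values are log2 fold changes, and higher ones mean more of the domain stayed soluble. Each fold change reflects the soluble amount of a domain after acid stress and is taken as a measure of aggregation propensity. The stress was pH 4, applied to pooled custom libraries of small protein domains analysed by high-throughput quantitative proteomics.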

| Sequence | soluble fraction (log2) |
| --- | --- |
| HMGPPLISLDDGLAKGFGVGVGDTLTINILGRRITATIASLREIDWQSLRFDFAVVLSPGVLEGA | 0.063 |
| HMYSNDEIVNYLKNYIFDNFNLNELSDEELEEKIAELVQQQFAGQLLSLDEKVKLVNQVYSSIR | -0.139 |
| HMLELTGEEEFVIRTLTRQGDLHINALVVETDIPINRMISLLFELEMKGVVKALVGGVYHLLG | -1.58 |
| HMQNPYDTLGVSRDSTDAEIKKAYRKLAMEHHPDKGGDSQRFAEINNAYDNIKDMSSRQNFENDPSNFQ | 0.186 |
| HMALENTDLYAHLRLSHTASVPEIQAALSARVKHMPLQTWLLARKWLLHPRLRERYDGMWSVRFGA | -0.136 |
| HMNIDQAFISDLERMIMPDISKYELMDIISIMENSGFTIKVEGTGNEVRQVIKPGSKLKKGQKIKIKL | -1.79 |
| HMTRYQHLAMLLEKRIAQGLYRNGERLPSVRSLSAEHGVSISTVQQAYYLLEQKQLIIPQSRSGYYVAPH | -0.378 |
| HMVVLPGEVLRINVIQEGKEHGQGVGYMDDGTMVVIENGREFIGEYMEVNVTKVLQTAAGRMIFGRVD | -0.917 |
| HMRIYFSPSEIGFYHESDKQAYLLAGTWPNDLLEISEKWFLYLLEGQQKGKVITVNDYDQPVLVD | -2.28 |
| HMTQDFEPGGQVFSRGEWLTIIRVNKSNGAVSSVTTPNYSFLGYSGTMKVTPDRITDYKAPSAEEAAVAS | -0.0277 |
| HMSVLEHVSGNVRRLRLQAGLSQEALARAASVSRRMLVGIESGDVNVSLSTLDRIAAALGVLFPDLVQAP | -0.392 |
| HMNSISDSELKALIKNNYLKFLKRIASDEEIEYHFNQIKNKTILLDELDSIFQNSQEYKDLVEHNNKIQN | -0.809 |
| HMLALVREQIERNVSNPTDEDIRKIRHDVMEVITRAGADAATVDIAIEIDSQKNILRAIATGATEL | -1 |
| HMQVSDANQLTDVVKSIIKQYPVEVEKYKSGKKALFGFFMGKVMENLKGKSNPKILKNVLTEILD | 0.263 |
| HMAQRFDLGDKLNPQSSEFEYLGTSSRTGVSTYRYKNVPTQLFFGRQIGDIVVGVRRGMITLTIYNL | 0.146 |
| HMHPDHRTATVPDAAAGRRFDAVLAELFPQFSRSKLTTWIKSGEVLLNGEVPRPRDAVVGGETVSLNVVL | ≥ 0.43 |
| HMSPAVEDYLEQIHNLIAQKGYARVVDIAGNLKISQASVTNMIQRMDADGLVVYERYRGVVLTETGRK | -0.456 |
| HMVQVHEWTNKAGRTIKAKFVRGDAQSVTIFLGGRNFVLKIADLSEESQALARKLSAPPPPP | 0.0306 |
| HMRRGKLGMASRLEQIPGIGPKKRKALLKAFGNSIDAIKSAPVEDLMKVKGINLVLAESIKEL | 0.374 |
| HMKTPRKVFTVLIRNTEYDVYDIDGKEHQGYNDTPKTWWLYHSERLPEGMIPPIDSDSWKPYSVGT | -2.19 |
| HMQDPRITRTRGLILQAFDALLVEKGFHALSVQAIAGRAGINRATFYAHFADKYALLDTSIQE | 0.081 |
| HMKITININIETLSHHIKQSGVPLGRLQESVPDYNEIVTGNKSPTYQQLEKISKLIRVPLGLLVIESPL | -0.451 |
| HMSQPYFELAAADMEALRNALSTIREIESVVLSGKIFHVEVREDLDPGTMNKLAFERGITLTHLVKKKN | -1.06 |
| HMKRSFGSVRQLRSGNYQARYTGPDTVRHTSPVTYTSKMDAEAWLVDERRKISSGTWTPPAR | 0.251 |
| HMEPREEFTFADLRANGLNGTAAAAGRRAALGAALGIGYGNAKQFLRRLNHYGVTRSEWEAALADLDE | -0.0963 |
| HMSEKIDINNSNELELKQLPLTNEQIKSLIEFRRLHGEIQNIYELKNIDFFNIEKVHELKAHIEIKKII | -1.05 |
| HMSVHSAELKKLKAHLLGIIGRELETQPSTENREEMVRQILHQSYESLRLNLPMQLKEELFNEILAEVL | -0.689 |
| HMVQISNTDDLYPIVQRIVDANPQSVEDYKNGKAKALGFLVGQMMKETKGKANPSMVNDLIIKAIEE | 0.0143 |
| HMFELDELDLVILKNLANGLSKKQIRVKLKKMDLRPNSESAIDKRVSKLFDEFGAKNSTELVAKLIREGL | -0.234 |
| HMHANSDVEQLMQMGIQRLNFQRYSDALLIFNQIIENFPDYAEAWNKRATLHYLLGNLDKSIADIEQTLE | -1.54 |
